The target of assay [1] is recombinant mouse CD34 (Sino Biological) (mouse) (UniProt Q64314). Put plainly: ELISA on coated recombinant mouse CD34.
The target is the same in assay [2]. Kind of assay: ELISA on coated recombinant mouse CD34, LNPs pre-incubated with Triton X-100, anti-Rat HRP detection. (An ELISA detects its analyte on a solid surface through an enzyme-linked reagent.)
For assay [3], the target named is Rat IgG2a (RIg) immobilized on the Biacore chip (Rattus norvegicus (Rat)) (UniProt P20760). Kind of assay: SPR, Biacore T-200, RIg immobilized on CM5 chip, mASSET 0 to 30 nM.
UniProt P20760, sequence (P20760 whole entry): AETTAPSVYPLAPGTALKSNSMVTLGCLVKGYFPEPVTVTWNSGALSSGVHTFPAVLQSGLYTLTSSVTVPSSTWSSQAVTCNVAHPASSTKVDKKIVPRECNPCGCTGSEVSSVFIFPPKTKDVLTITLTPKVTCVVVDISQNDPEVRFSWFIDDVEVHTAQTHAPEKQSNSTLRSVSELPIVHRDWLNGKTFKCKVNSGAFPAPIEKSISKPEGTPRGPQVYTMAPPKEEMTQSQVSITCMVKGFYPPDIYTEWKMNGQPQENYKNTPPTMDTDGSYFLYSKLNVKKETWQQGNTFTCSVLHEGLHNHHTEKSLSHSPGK
Assay [4] addresses Rat IgG2a (RIg), BioXcell clone FIB504. Kind of assay: ELISA on coated RIg of ASSET LNPs after dialysis, LNPs pre-incubated with 0.2% Triton X-100.
For assay [5], the target named is anti-CD34 RIg (clone mec14.7) held by ASSET on TsiLNPs. Put plainly: share of added RIg held on ASSET LNPs, gel quantification after purification.
Assay [6] concerns the target Rat IgG2a (RIg), BioXcell clone FIB504. Kind of assay: ELISA, plates coated with 5 µg/ml RIg, ASSET in serial dilutions, anti-His detection.

The source of these data is patent US20190309087A1.

One may read the Kd as the concentration at which binding is half-saturated.

UniProt Q64314, sequence (Q64314 35-287 limits assumed): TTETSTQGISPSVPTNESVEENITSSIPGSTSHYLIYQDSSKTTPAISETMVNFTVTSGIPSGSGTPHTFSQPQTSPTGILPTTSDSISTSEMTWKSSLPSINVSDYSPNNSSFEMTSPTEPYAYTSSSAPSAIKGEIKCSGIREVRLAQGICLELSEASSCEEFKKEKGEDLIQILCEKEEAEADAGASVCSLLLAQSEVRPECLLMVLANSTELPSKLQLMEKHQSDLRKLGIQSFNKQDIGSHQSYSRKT

As to “anti-CD34 RIg (clone mec14.7) chemically conjugated to LNPs (ccTsiLNPs) (antibody)”, the fold loss in activity against RIg bound to the LNP by ASSET in assay [1] amounted to 4.5 fold. The Kd in assay [2] worked out at 1.08 nM. “anti-CD34 RIg (clone mec14.7) held by ASSET on TsiLNPs (antibody)”: the Kd in assay [2] was found to be 0.24 nM.

B1: mutated (m)ASSET, fusion protein containing a mutated NlpA motif (scFv, not shown: small tags and cut ends)
scFv: EVQLLQSGPELVKPGASVKIPCKASGYTFTDYNMDWVKQSHEKSLEWIGYINPYSGDTIYNHKFKDKATLTVYKSSNIAYMELRSLTSEDTAVYYCARGGYDYGDHWGQGTTLTVSSGSAGGGGSGGGGSGGGGSDIKMTQSPSSMYASLGERVTITCKASQDINSYLSWFQQKPGKSPKTLIYRANRLVDGVPSRFSGSGSGQDYSLTISSLEYEDMGIYYCLQDDEFPRTFGGGTKLEIK
B1 yielded an equilibrium dissociation constant (Kd) in assay [3] of 22.7 nM.

B2: ASSET (Anchored Secondary scFv Enabling Targeting) (scFv, part only; not given: mCherry fusion and junctions, part only)
scFv, part: CDQSSSEVQLLQSGPELVKPGASVKIPCKASGYTFTDYNMDWVKQSHEKSLEWIGYINPYSGDTIYNHKFKDKATLTVYKSSNIAYMELRSLTSEDTAVYYCARGGYDYGDHWGQGTTLTVSSGSAGGGGSGGGGSGGGGSDIKMTQSPSSMYASLGERVTITCKASQDINSYLSWFQQKPGKSPKTLIYRANRLVDGVPSRFSGSGSGQDYSLTISSLEYEDMGIYYCLQDDEFPRTFGGGTKLEIKHHHHHH
modifications: N-terminal cysteine of the CDQSSS NlpA motif is lipid-acylated (bacterial lipidation)
For B2, the functionality maintained after incorporation into LNPs in assay [4] was found to be 95.8%. This molecule also had an IgG incorporation in assay [5] of 98.3%. In addition, the Kd in assay [6] is 10 nM.
